B1: His-tagged maltose-binding protein (MBP) fused to DENV2 NS3 protein (His-MBP-NS3) (protein)
chain: AGVLWDVPSPPPMGKAELEDGAYRIKQKGILGYSQIGAGVYKEGTFHTMWHVTRGAVLMHKGKRIEPSWADVKKDLISYGGGWKLEGEWKEGEEVQVLALEPGKNPRAVQTKPGLFKTNAGTIGAVSLDFSPGTSGSPIIDKKGKVVGLYGNGVVTRSGAYVSAIAQTEKSIEDNPEIE
B2: refolded His-NS3 (protein)
chain: B1 chain

Target: His-tagged DENV2 NS2B protein (His-NS2B) (aa 48-95)

Protein | transactivation (protease activity, Abz substrate at 200 µM; NS3 150 nM, NS2B 1 µM)
B1 | Both soluble MBP-NS3 fusion protein and refolded NS3 can be trans-activated by soluble His-NS2B, and have similar activities
B2 | Both soluble MBP-NS3 fusion protein and refolded NS3 can be trans-activated by soluble His-NS2B, and have similar activities

Reference: patent publication US20190160028
